What was measured:
[1] = substrate: Nc1ncnc2c1ncn2CCOCP(=O)(O)O; assay: TP_TRANSPORTER: uptake in OAT1-expressing CHO cells; format: functional, cell-based
[2] = substrate: Nc1ccn(C[C@@H](CO)OCP(=O)(O)O)c(=O)n1; assay: cells, lysate or membranes named

B1: Solute carrier family 22 member 6 (Homo sapiens) (protein)
chain: MAFNDLLQQVGGVGRFQQIQVTLVVLPLLLMASHNTLQNFTAAIPTHHCRPPADANLSKNGGLEVWLPRDRQGQPESCLRFTSPQWGLPFLNGTEANGTGATEPCTDGWIYDNSTFPSTIVTEWDLVCSHRALRQLAQSLYMVGVLLGAMVFGYLADRLGRRKVLILNYLQTAVSGTCAAFAPNFPIYCAFRLLSGMALAGISLNCMTLNVEWMPIHTRACVGTLIGYVYSLGQFLLAGVAYAVPHWRHLQLLVSAPFFAFFIYSWFFIESARWHSSSGRLDLTLRALQRVARINGKREEGAKLSMEVLRASLQKELTMGKGQASAMELLRCPTLRHLFLCLSMLWFATSFAYYGLVMDLQGFGVSIYLIQVIFGAVDLPAKLVGFLVINSLGRRPAQMAALLLAGICILLNGVIPQDQSIVRTSLAVLGKGCLAASFNCIFLYTGELYPTMIRQTGMGMGSTMARVGSIVSPLVSMTAELYPSMPLFIYGAVPVAASAVTVLLPETLGQPLPDTVQDLESRWAPTQKEAGIYPRKGKQTRQQQEHQKYMVPLQASAQEKNGL
[1]
  Km: 23.8 µM
[2]
  Km: 58 µM

Reference: ChEMBL document CHEMBL2074128, “Cytotoxicity of antiviral nucleotides adefovir and cidofovir is induced by the expression of human renal organic anion transporter 1” (J Am Soc Nephrol, 2000)
